Experimental findings from US6777536 (Harvard, dated 2004) are described below.

B1: mek4-AP soluble receptor fusion protein (mouse Mek4 receptor extracellular domain fused to secreted human placental alkaline phosphatase) (receptor)
chain: ELSPQPSNEVNLLDSKTIQGELGWISYPSHGWEEISGVDEHYTPIRTYQVCNVMDHSQNNWLRTNWVPRNSAQKIYVELKFTLRDCNSIPLVLGTCKETFNLYYMESDDHGVKFREHQFTKIDTIAADESFTQMDLGDRILKLNTEIREVGPVNKKGFYLAFQDVGACVALVSVRVYFKKCPFTVKNLAMFPDTVPMDSQSLVEVRGSCVNNSKEEDPPRMYCSTEGEWLVPIGKCTCNAGYEERGFICQACRPGFYKASDGAAKCAKCPPHSSTQEDGSMNCRCENNYFRAEKDPPSMACARPPSAPRNVISNINETSVILDWSWPLDTGGRKDITFNIICKKCGWNVRQCEPCSPNVRFLPRQLGLTNTTVTVTDLLAHTNYTFEIDAVNGVSELSSPPRQYAAVSITTNQAAPSPVMTIKKDRTSRNSISLSWQEPEHPNGIILDYEVKYYQKQEQETSYTILRARGTNVTISSLKPDTTYVFQIRARTAAGYGTNSRKFEFETSPDSFSISGENSHGSSG
notes: extracellular domain; Used as unpurified conditioned supernatant of stably transfected NIH-3T3 cells; Apparent molecular weight about 150 kD; also called AP-mek4; not shown: secreted human placental alkaline phosphatase, as encoded by vector APtag-1 (Flanagan and Leder 1990)
B2: Elf-1 (mouse EPH ligand family-1), expressed on the surface of transiently transfected COS cells (ligand)
chain: RNEDPARANADRYAVYWNRSNPRFQVSAVGDGGGYTVEVSINDYLDIYCPHYGAPLPPAERMERYILYMVNGEGHASCDHRQRGFKRWECNRPAAPGGPLKFSEKFQLFTPFSLGFEFRPGHEYYYISATPPNLVDRPCLRLKVYVRPTNETLYEAPEPIFTSN
modifications: C-terminal glycosyl phosphatidylinositol anchor (sensitive to PI-PLC); attachment residue not stated
notes: The full-length cDNA (209 amino acids) was transfected; also called muElf-1; cell surface Elf-1

Test [1] deals with T1, cell surface ligand expressed endogenously in the rat liver stromal cell line BRL-3A (rat).
T1 construct: PI-PLC sensitive (GPI-linked) cell surface ligand; also called endogenous ligand of BRL-3A cells
Briefly: Scatchard analysis of AP fusion binding to BRL-3A cells (endogenous ligand). How it is done: (§1) (FIGS. 3A and 3D) Cells were treated with saturating amounts of mek4-AP or sek-AP, or with AP, each at 500 OD/hr/ml. Columns show the average of two binding determinations, and error bars indicate the difference between the two. (FIGS. 3B–C and 3E–F) show the Scatchard analyses of binding. (FIGS. 3A–3C illsutrate binding to COS cells transfected with Elf-1, and FIGS. 3D–F show endogenous ligand expression by the BRL-3A cell line).
A panel of cell lines was tested with mek4-AP and sek-AP for endogenous expression of a cell surface ligand. Briefly, cells were treated with supernatants containing mek4-AP, sek-AP or unfused AP as a control, each at 1,000 OD/hr/ml. The cells were then washed, lysed and assayed colorimetrically for bound AP activity. […] The highest binding was shown by the rat liver stromal cell line BRL-3A, the mink lung fibroblast line Mv1Lu, and two neural crest cell lines, NC7mycblue and NC7EIablue. The BRL-3A cell line was analyzed further. […] The number of binding sites per BRL-3A cell is approximately 50,000. In situ staining was also used to examine the cell surface binding of mek4-AP and sek-AP to BRL-3A cells, and indicated expression of the ligand over the whole cell surface.

Test [2] has as its target B1. Briefly: Scatchard analysis, COS cells transfected with Elf-1.
Test [3] deals with T2, sek-AP soluble receptor fusion protein (mouse Sek receptor extracellular domain fused to secreted human … (mouse; human, UniProt Q03137 20-547).
T2 construct: extracellular domain; Used as unpurified conditioned supernatant of stably transfected NIH-3T3 cells; Apparent molecular weight about 150 kD; also called Ap-sek; not shown: secreted human placental alkaline phosphatase, as encoded by vector APtag-1 (Flanagan and Leder 1990)
The test is described as above.

In test [4] the target is B1. Briefly: Scatchard analysis of AP fusion binding to COS cells transfected with Elf-1, colorimetric assay of bound AP activity. How it is done: as §1
In test [5] the target is T2, sek-AP soluble receptor fusion protein …. The description is as above. How it is done:
as §1

T2 sequence (Q03137 other isoform, or with tags, fused parts or gaps): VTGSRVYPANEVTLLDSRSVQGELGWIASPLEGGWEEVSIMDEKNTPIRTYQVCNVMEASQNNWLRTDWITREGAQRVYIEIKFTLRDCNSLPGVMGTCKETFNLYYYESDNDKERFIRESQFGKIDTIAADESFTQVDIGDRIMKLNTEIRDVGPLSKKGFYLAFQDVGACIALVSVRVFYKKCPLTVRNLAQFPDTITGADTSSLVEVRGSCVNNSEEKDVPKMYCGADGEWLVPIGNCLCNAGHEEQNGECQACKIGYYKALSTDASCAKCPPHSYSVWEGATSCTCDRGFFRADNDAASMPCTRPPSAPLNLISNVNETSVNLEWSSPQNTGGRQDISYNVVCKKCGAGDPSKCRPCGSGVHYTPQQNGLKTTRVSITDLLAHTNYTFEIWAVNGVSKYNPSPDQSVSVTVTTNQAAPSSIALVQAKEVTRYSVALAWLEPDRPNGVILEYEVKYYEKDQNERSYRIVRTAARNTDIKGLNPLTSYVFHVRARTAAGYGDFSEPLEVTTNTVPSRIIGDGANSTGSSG

Take B1: in test [1], binding was put at a Kd of 1.3 nM.

With B2, the Kd was approximately 1 nM in test [2], approximately 10 nM in test [3], 1.8 nM in test [4] and 18 nM in test [5].
